Positions count from the first letter of the chain named.
T1: human GIP receptor (human) (UniProt P48546)
T1 sequence (looked up): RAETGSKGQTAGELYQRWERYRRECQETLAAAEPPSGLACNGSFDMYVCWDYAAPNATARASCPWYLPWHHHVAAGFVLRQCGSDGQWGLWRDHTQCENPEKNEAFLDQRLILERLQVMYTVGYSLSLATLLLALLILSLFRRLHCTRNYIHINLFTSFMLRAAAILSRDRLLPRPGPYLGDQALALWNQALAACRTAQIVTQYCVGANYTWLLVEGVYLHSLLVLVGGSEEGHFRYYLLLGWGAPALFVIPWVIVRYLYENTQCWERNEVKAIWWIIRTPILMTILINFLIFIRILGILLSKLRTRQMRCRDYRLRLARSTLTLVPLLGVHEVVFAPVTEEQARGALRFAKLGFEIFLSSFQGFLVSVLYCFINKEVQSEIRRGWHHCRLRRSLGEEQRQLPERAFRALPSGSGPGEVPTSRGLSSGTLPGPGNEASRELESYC

B1: Example 598 (peptide)
chain: YXQGTXTSDXXIXLDXKAQXXFIEXLTEGGPSSGEPPPEGTEEE
modifications: non-natural residues; (γGlu)2-C18 diacid on Lys; C-terminal amide; synthetic construct; SITE 2: note = 2-Aminoisobutyric Acid; SITE 6: note = alpha-methyl-2-fluoro-L-phenylalanine; SITE 10: note = 3-(4-Pyridyl)-L-alanine; SITE 11: note = alpha-methyl-L-serine; SITE 13: note = alpha-methyl-leucine; SITE 16: note = L-ornithine; SITE 17: note = Lysine is chemically mo
B2: Example 524 (peptide)
chain: YXQGTXTSDXXIXLDXKAQXXFIEYLIEGGPSSGEPPPSGTGE
modifications: not fully specified; C-terminal amide; synthetic construct; SITE 2: note = 2-Aminoisobutyric Acid; SITE 6: note = alpha-methyl-2-fluoro-L-phenylalanine; SITE 10: note = 3-(4-Pyridyl)-L-alanine; SITE 11: note = alpha-methyl-L-serine; SITE 13: note = alpha-methyl-leucine; SITE 16: note = L-ornithine; SITE 17: note = Lysine is chemically mo
B3: Example 545 (peptide)
chain: B2 chain with Y25X, I27A
modifications: synthetic construct; SITE 2: note = 2-Aminoisobutyric Acid; SITE 6: note = alpha-methyl-2-fluoro-L-phenylalanine; SITE 10: note = 3-(4-Pyridyl)-L-alanine; SITE 11: note = alpha-methyl-L-serine; SITE 13: note = alpha-methyl-leucine; SITE 16: note = L-ornithine; SITE 17: note = Lysine is chemically mo
B4: Example 527 (peptide)
chain: B2 chain with X21N, Y25X, I27Q, S39E
modifications: synthetic construct; SITE 2: note = 2-Aminoisobutyric Acid; SITE 6: note = alpha-methyl-2-fluoro-L-phenylalanine; SITE 10: note = 3-(4-Pyridyl)-L-alanine; SITE 11: note = alpha-methyl-L-serine; SITE 13: note = alpha-methyl-leucine; SITE 16: note = L-ornithine; SITE 17: note = Lysine is chemically mo
B5: Example 543 (peptide)
chain: B2 chain with Y25X, I27T
modifications: synthetic construct; SITE 2: note = 2-Aminoisobutyric Acid; SITE 6: note = alpha-methyl-2-fluoro-L-phenylalanine; SITE 10: note = 3-(4-Pyridyl)-L-alanine; SITE 11: note = alpha-methyl-L-serine; SITE 13: note = alpha-methyl-leucine; SITE 16: note = L-ornithine; SITE 17: note = Lysine is chemically mo
B6: Example 603 (peptide)
chain: B2 chain with X13L, S39E, T41S, G42E
modifications: non-natural residues, acylated Lys ((γGlu)2-C18 diacid), C-terminal amide; synthetic construct; SITE 2: note = 2-Aminoisobutyric Acid; SITE 6: note = alpha-methyl-2-fluoro-L-phenylalanine; SITE 10: note = 3-(4-Pyridyl)-L-alanine; SITE 11: note = alpha-methyl-L-serine; SITE 16: note = L-ornithine; SITE 17: note = Lysine is chemically modified through conjugation of the epsi
B7: Example 597 (peptide)
chain: B2 chain with Y25X, I27T, S39E, G42E
modifications: acylated Lys (γGlu)2-C18 diacid; non-natural residues; C-terminal amide; synthetic construct; SITE 2: note = 2-Aminoisobutyric Acid; SITE 6: note = alpha-methyl-2-fluoro-L-phenylalanine; SITE 10: note = 3-(4-Pyridyl)-L-alanine; SITE 11: note = alpha-methyl-L-serine; SITE 13: note = alpha-methyl-leucine; SITE 16: note = L-ornithine; SITE 17: note = Lysine is chemically mo
B8: Example 529 (peptide)
chain: B2 chain with X21Q, Y25X, I27Q, S39E
modifications: synthetic construct; SITE 2: note = 2-Aminoisobutyric Acid; SITE 6: note = alpha-methyl-2-fluoro-L-phenylalanine; SITE 10: note = 3-(4-Pyridyl)-L-alanine; SITE 11: note = alpha-methyl-L-serine; SITE 13: note = alpha-methyl-leucine; SITE 16: note = L-ornithine; SITE 17: note = Lysine is chemically mo
B9: Example 54 (peptide)
chain: YXQGTFTSDFSKXLDKKAQXAFIEYLLEGGPSSGEPPPGEGX
modifications: synthetic construct; SITE 2: note = 2-Aminoisobutyric Acid; SITE 13: note = alpha-methyl-leucine; SITE 17: note = Lysine is chemically modified through conjugation of the epsilon-amino group of the Lysine side chain with (2-[2-(2-Amino-ethoxy)-ethoxy]-acetyl)-(gamma-Glu)-CO-(CH2) 18-CO2H; SITE 20: n
B10: Example 56 (peptide)
chain: B9 chain with E35A, G39S
modifications: synthetic construct; SITE 2: note = 2-Aminoisobutyric Acid; SITE 13: note = alpha-methyl-leucine; SITE 17: note = Lysine is chemically modified through conjugation of the epsilon-amino group of the Lysine side chain with (2-[2-(2-Amino-ethoxy)-ethoxy]-acetyl)-(gamma-Glu)-CO-(CH2) 16-CO2H; SITE 20: n

Biological target: human glucagon receptor (human) (UniProt P47871)
Sequence (P47871 26-477): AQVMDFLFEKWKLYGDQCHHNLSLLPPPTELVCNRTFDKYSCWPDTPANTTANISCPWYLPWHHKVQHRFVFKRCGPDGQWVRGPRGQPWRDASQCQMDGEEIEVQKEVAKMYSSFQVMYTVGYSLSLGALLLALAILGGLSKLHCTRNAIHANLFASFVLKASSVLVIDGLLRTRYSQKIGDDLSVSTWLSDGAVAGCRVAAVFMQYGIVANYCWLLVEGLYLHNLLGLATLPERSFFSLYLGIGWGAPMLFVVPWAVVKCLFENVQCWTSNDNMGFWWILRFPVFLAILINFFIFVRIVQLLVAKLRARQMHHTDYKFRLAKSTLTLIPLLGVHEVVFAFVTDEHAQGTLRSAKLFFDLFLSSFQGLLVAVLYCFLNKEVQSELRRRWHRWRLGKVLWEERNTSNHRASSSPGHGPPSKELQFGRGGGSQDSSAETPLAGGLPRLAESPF
Experiment: cell-based or functional assay

| Binder | Relative cAMP EC50 [nM] | cAMP Rel EC50 (in the presence of 1% HSA) [nM] | cAMP Rel EC50 (1% HSA) [nM] | cAMP Rel EC50, nM (in the presence of 1% HSA) [nM] |
| --- | --- | --- | --- | --- |
| B1 | 8.79 | 457 | – | – |
| B2 | 5.11 | – | 464 | – |
| B3 | 2.71 | – | 180 | – |
| B4 | 6.99 | – | 580 | – |
| B5 | 4.56 | – | 300 | – |
| B6 | 5.43 | 419 | – | – |
| B7 | 5.2 | 329 | – | – |
| B8 | 6.59 | – | 398 | – |
| B9 | 3.77 | – | – | 1940 |
| B10 | 2.8 | – | – | 265 |

Biological target: hGLP-1R (Homo sapiens, UniProt P43220)
Sequence (P43220 24-463): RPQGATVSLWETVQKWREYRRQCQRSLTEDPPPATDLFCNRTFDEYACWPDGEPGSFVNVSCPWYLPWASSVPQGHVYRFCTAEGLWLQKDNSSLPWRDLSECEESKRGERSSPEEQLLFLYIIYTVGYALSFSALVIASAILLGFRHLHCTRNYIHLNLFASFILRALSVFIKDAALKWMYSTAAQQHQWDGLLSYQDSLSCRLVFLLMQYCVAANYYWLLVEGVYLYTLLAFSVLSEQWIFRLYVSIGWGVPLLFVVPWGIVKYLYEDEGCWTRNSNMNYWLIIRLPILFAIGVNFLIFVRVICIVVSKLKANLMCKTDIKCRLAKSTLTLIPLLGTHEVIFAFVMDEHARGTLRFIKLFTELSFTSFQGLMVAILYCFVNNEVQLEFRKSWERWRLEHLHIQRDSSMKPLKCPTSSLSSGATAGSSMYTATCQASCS
Experiment: cell-based or functional assay

| Binder | Relative cAMP EC50 [nM] | cAMP Rel EC50 (in the presence of 1% HSA) [nM] | cAMP Rel EC50 (1% HSA) [nM] | cAMP Rel EC50, nM (in the presence of 1% HSA) [nM] |
| --- | --- | --- | --- | --- |
| B1 | 0.886 | 47.3 | – | – |
| B2 | 0.487 | – | 32.7 | – |
| B3 | 0.602 | – | 40.2 | – |
| B4 | 0.446 | – | 26.8 | – |
| B5 | 0.41 | – | 32 | – |
| B6 | 0.688 | 49.5 | – | – |
| B7 | 0.6 | 36.4 | – | – |
| B8 | 0.467 | – | 24.5 | – |
| B9 | 3.95 | – | – | 1300 |
| B10 | 4.07 | – | – | 167 |

Biological target: T1, human GIP receptor (human)
Experiment: cell-based or functional assay

| Binder | Relative cAMP EC50 [nM] | cAMP Rel EC50 (in the presence of 1% HSA) [nM] | cAMP Rel EC50 (1% HSA) [nM] | cAMP Rel EC50, nM (in the presence of 1% HSA) [nM] |
| --- | --- | --- | --- | --- |
| B1 | 0.0927 | 3.49 | – | – |
| B2 | 0.0266 | – | 1.46 | – |
| B3 | 0.0432 | – | 2.74 | – |
| B4 | 0.0386 | – | 2.6 | – |
| B5 | 0.0319 | – | 1.88 | – |
| B6 | 0.102 | 4.99 | – | – |
| B7 | 0.0643 | 2.38 | – | – |
| B8 | 0.0273 | – | 1.39 | – |
| B9 | 0.502 | – | – | 168 |
| B10 | 0.315 | – | – | 30.3 |

From US20240270821A1, “GIP/GLP1/GCG TRI-RECEPTOR AGONISTS AND USES THEREOF” (priority 2023, published 2024)
